# Results: US20110287023A1 (AstraZeneca / MedImmune, published 2011)
# T1: HMGB1 B-box peptide 108-138 (UniProt P09429 108-138, biotinylated)
# T1 peptide (looked up): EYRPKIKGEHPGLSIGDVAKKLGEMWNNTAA
# T2: HMGB1 C-terminal tail peptide 188-215 (UniProt P09429 188-215, biotinylated)
# T2 peptide (looked up): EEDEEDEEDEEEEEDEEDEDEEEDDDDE
# T3: released HMG1 from conditioned medium of necrotic 293H cells (human, UniProt P09429 1-215)
# T3 construct: also called necrotic HMG1
# T3 sequence (looked up): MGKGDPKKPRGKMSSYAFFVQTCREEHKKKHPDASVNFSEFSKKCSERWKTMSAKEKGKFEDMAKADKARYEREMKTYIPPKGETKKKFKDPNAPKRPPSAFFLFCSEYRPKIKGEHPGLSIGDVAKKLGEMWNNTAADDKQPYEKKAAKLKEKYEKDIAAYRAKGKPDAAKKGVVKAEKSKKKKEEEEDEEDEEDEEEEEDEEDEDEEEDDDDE
# T4: native nuclear HMG1 from freeze-thawed 293H cells (human, UniProt P09429 1-215)
# T4 construct: unpurified cell supernatant
# T4 sequence (looked up): T3 sequence (looked up)
# B1: human anti-HMG1 antibody E11 (antibody, IgG1, V domains shown)
# VH: EVQLLESGGGLVQPGGSLRLSCAASGFTFSRYQMNWVRQAPGKGLEWVSSISPSGGHTHYADSVKGRFTISRDNSKNTLYLQMNSLRAEDTAVYYCAKDGRQGKISTVDHWGQGTLVTVSS
# VL: DIQMTQSPGTLSLSPGERATLSCRASQSVRSNFLAWYQQKPGQAPRLLIYGASRRASGIPDRFSGSGFGADFTLSISRLEPEDFAVYYCQQYGSSPNTFGQGSRVEIK
# notes: full length IgG1 made from a human Fab phage clone
# B2: human anti-HMG1 antibody G4 (antibody, IgG1, V domains shown)
# VH: EVQLLESGGGLVQPGGSLRLSCAASGFTFSWYDMTWVRQAPGKGLEWVSSISPSGGYTKYADSVKGRFTISRDNSKNTLYLQMNSLRAEDTAVYYCTTEFYDYLDVWGKGTTVTVSS
# VL: DIQMTQSPGTLSLSPGEGATLSCRASQSVSSTYLAWYQQKPGQAPRLLIYEASKRATGTPARFSGSGSGTDFTLSISSLEPEDFAVYYCQHRHNWPPQWTFGQGTKVEVK
# notes: full length IgG1 made from a human Fab phage clone; also called ATCC PTA-6258
# Experiments:
# [1] = target: T5, recombinant HMG1 produced in E. coli as a calmodulin binding protein (CBP) fusion (human); test: sandwich ELISA, captured antibody and soluble HMG1, OD 450
# T5 construct: also called rHMG1; rHMGB1
# Procedure: (§1) Sandwich ELISA (soluble HMG1): Immunoplates (EIA/RIA plate, High binding, Costar) were coated with anti human IgG Fc at 10 μg/ml in PBS (pH 7.2) and incubated at 4° C. overnight. The coating reagent was removed and the plates were rinsed briefly with PBS. The plates were then blocked with 4% milk for 1 hour at 37° C. and rinsed with PBS. The anti-HMG1 antibodies were diluted in 4% milk. For serial dilutions, the antibodies were used at a starting concentration of 20 μg/ml. The diluted anti-HMG1 antibodies were then added into plate and incubated for 1 hr at 37° C. The plate was then washed 10 times with PBST (PBS/0.1% tween 20) and incubate with antigen (HMGB1, 2 μg/ml; or 0.7 μg/ml for native HMGB1) in 4% milk and incubated at 37° C. for 1 h. The plate was then wash 10 times and incubated with mouse anti-HMGB1, 1 μg/ml in 4% milk at 37° C. for 1 h. The plate was washed 10 times and incubated with anti-mouse IgG-HRP at 1:1000 at 37° C. for 1 h. The plate was then washed and developed. HRP activity was detected with Sureblue HRP substrate (KPL). Plates were read at 450 nm using a Kinetic Microplate Reader (Molecular Devices).
# [2] = target: T1, HMGB1 B-box peptide 108-138; test: ELISA on biotinylated overlapping peptides
# Procedure: (§2) The plate was then blocked with 4% milk powder dissolved in PBS at 37° C. for 1 hour. The blocking solution was removed and replaced with human anti-HMG1 antibodies at various concentrations (see FIGS. 5A-B). […] HRP activity was detected with Sureblue HRP substrate (KPL). Plates were read at 450 nm using a Kinetic Microplate Reader (Molecular Devices). […] After washing and blocking with 1% BSA in PBS, the biotinylated peptides were individually added into the avidin coated wells and incubated for 30 min at room temperature. The serial diluted antibody G4, S16 and S6 at the initial concentration at 10 μg/ml were then transferred into the wells followed by adding mouse anti human IgG-HRP conjugate (Pierce). Detection was accomplished by adding 50 μl of tetramethylbenzidine (TMB) substrate (KPL) and the absorbance was read at 450 nm.
# [3] = target: T2, HMGB1 C-terminal tail peptide 188-215; test: ELISA on biotinylated overlapping peptides
# Procedure: as §2
# [4] = target: T3, released HMG1 from conditioned medium …; test: sandwich ELISA: antibody titrated and captured on anti-human IgG Fc, released HMG1 in solution, mouse anti-HMGB1 detection, OD 450
# Procedure: as §1
# [5] = target: T4, native nuclear HMG1 from freeze-thawed …; test: sandwich ELISA: antibody titrated and captured on anti-human IgG Fc, native nuclear HMG1 at 0.7 ug/ml, mouse anti-HMGB1 and anti-mouse IgG-HRP, OD 450
# Procedure: as §1
Binder,EC50 (read off the curve) [1] [mg/L],binding result [2],binding result [3],binding result [4],binding result [5]
B1,~0.4,–,–,–,–
B2,–,binds,binds,binds,binds
